This note sets out measurements from patent US9999664B2, “HIV-1 gp120 mini V3 loop and uses thereof” (The Scripps Research Institute, priority 2011, dated 2018).

The target of test [1] is HIV-1 JR-FL envelope (Env) on pseudovirus (HIV-1 JR-FL).
In test [2] the target is HIV-1JR-FL Env trimers on the surface of transfected 293T cells (Human immunodeficiency virus 1, strain JR-FL). In words: JR-FL cell surface binding, flow cytometry on transfected 293T cells. On the technique in general: In flow cytometry, cells or beads pass a laser one at a time.
Test [3] has as its target HIV-1 JR-FL envelope (Env) on pseudovirus (HIV-1 JR-FL). This is another data set of the same source.
In test [4] the target is gp120 (ELISA antigen of FIG. 3, strain not stated) (HIV-1, strain not stated). In words: ELISA on coated gp120, absorbance at 405 nm. (In general: ELISA stands for enzyme-linked immunosorbent assay.)
In test [5] the target is HIV-1 BaL envelope N332A on pseudovirus (HIV-1 BaL). As to the kind of experiment: cell-based or functional assay.
In test [6] the target is HIV-1 92RW020 envelope N332A on pseudovirus (HIV-1 92RW020). As to the kind of experiment: cell-based or functional assay.
Test [7] has as its target HIV-1 BaL envelope N301A on pseudovirus (HIV-1 BaL). As to the kind of experiment: cell-based or functional assay.
The target in test [8] is HIV-1 JRFL envelope N301A on pseudovirus (HIV-1 JR-FL). As to the kind of experiment: cell-based or functional assay.
The target of test [9] is HIV-1 SF162 envelope N332A on pseudovirus (HIV-1 SF162) (UniProt P19550). As to the kind of experiment: cell-based or functional assay.
Test [10] addresses HIV-1 ADA envelope N301A on pseudovirus (HIV-1 ADA). In words: cell-based or functional assay.
Test [11] deals with HIV-1 SF162 envelope N301A on pseudovirus (HIV-1 SF162) (UniProt P19550). As to the kind of experiment: cell-based or functional assay.
Test [12] has as its target HIV-1 ADA envelope N332A on pseudovirus (HIV-1 ADA). As to the kind of experiment: cell-based or functional assay.
Test [13] addresses HIV-1 JRFL envelope N332A on pseudovirus (HIV-1 JR-FL). In words: cell-based or functional assay.
In test [14] the target is HIV-1 JRCSF envelope N301A on pseudovirus (HIV-1 JR-CSF) (UniProt P20871). As to the kind of experiment: cell-based or functional assay.
The target in test [15] is HIV-1 JRCSF envelope N332A on pseudovirus (HIV-1 JR-CSF) (UniProt P20871). In words: cell-based or functional assay.
In test [16] the target is HIV-1 BaL envelope (Env) on pseudovirus (HIV-1 BaL). In words: cell-based or functional assay.
The target in test [17] is HIV-1 JR-CSF envelope (Env) on pseudovirus (HIV-1 JR-CSF) (UniProt P20871). In words: cell-based or functional assay.
The target in test [18] is gp120 JR-CSF (HIV-1 JR-CSF) (UniProt P20871). As to the kind of experiment: gp120 ELISA.
The next test concerns the target gp120 BaL (HIV-1 BaL). In words: gp120 ELISA.
Test [19] has as its target gp120 JR-FL (HIV-1 JR-FL). In words: gp120 ELISA.
In test [20] the target is HIV-1 JR-FL envelope (Env) on pseudovirus (HIV-1 JR-FL). In words: cell-based or functional assay.

Broadly, the EC50 is the concentration needed to bring the measured effect to its halfway point. High values mean a need for much substance, low ones an effect from little substance. As a reminder, the EC50 (read off the curve) is the concentration needed to bring the measured effect to its halfway point. Low readings indicate a more potent agent, high ones a less potent agent.

For the substance 2G12 IgG (antibody), the IC50 (JR-FL neutralization) in [1] amounted to 8.5 nM. In test [2], this substance displayed an EC50 of 11.6 nM.

As to 128 (-ASYWNR) (antibody), the IC50 (read off the curve; HIV-1JR-FL pseudovirus) in [3] was 0.7 µg/mL. The EC50 (read off the curve) in test [4] was 0.7 µg/mL.

In test [1], PGT 127 Fab had an IC50 (JR-FL neutralization) of 14.6 nM. In test [2], this substance came in with an EC50 of 12.7 nM.

Regarding PGT 127 IgG (antibody), the fold change in IC50 of variant envelope compared to WT envelope in test [5] was more than 200 fold; in [6], 6.3 fold; in test [7], more than 200 fold; in [8] it was more than 200 fold; in [9], more than 200 fold; in test [10] it was more than 200 fold. For the same substance, the fold change in IC50 of variant envelope compared to WT envelope was more than 200 fold in test [11]; more than 200 fold in test [12]; more than 200 fold in [13]; more than 250 fold in test [14]; more than 200 fold in [15]. For the same substance, the IC50 (read off the curve; HIV-1JR-FL pseudovirus) in [3] stood at 0.02 µg/mL. The same substance showed an IC50 (JR-FL neutralization) in [1] of 0.18 nM. Besides, the EC50 (read off the curve) in [4] was 0.08 µg/mL. Also, the EC50 in [2] came out at 3.1 nM.

As to PGT 128 Fab, the IC50 (JR-FL neutralization) in test [1] turned out to be 6.3 nM. The same substance came in with an EC50 in test [2] of 10.3 nM.

On to PGT 128 IgG variant HC A30S (antibody), for which the Fold change in neutralization (IC50 variant/IC50 WT antibody) worked out at 1.4 fold in test [16] and 0.9 fold in test [17]. In addition, the fold change in gp120 binding (EC50 variant/EC50 WT) was 0.8 fold in test [18], 0.6 fold with gp120 BaL (HIV-1 BaL) and 0.7 fold in test [19].

As for PGT 128 IgG variant HC A31S (antibody), the Fold change in neutralization (IC50 variant/IC50 WT antibody) in test [16] amounted to 1.2 fold; in test [17] it was 1.1 fold. Also, the results for the fold change in gp120 binding (EC50 variant/EC50 WT) (in [18]; with gp120 BaL (HIV-1 BaL); in test [19]) were 0.8 fold, 0.9 fold and 1.1 fold, respectively.

On to PGT 128 IgG variant HC D27A (antibody), for which the Fold change in neutralization (IC50 variant/IC50 WT antibody) stood at 1.6 fold in test [16] and 0.9 fold in test [17]. The fold change in gp120 binding (EC50 variant/EC50 WT) in test [18] came out at 1.1 fold; with gp120 BaL (HIV-1 BaL), 1.1 fold; in [19] it was 1 fold.

For PGT 128 IgG variant HC D72A (antibody), the Fold change in neutralization (IC50 variant/IC50 WT antibody) is 1.2 fold in test [16] and 1 fold in [17]. The fold change in gp120 binding (EC50 variant/EC50 WT) was found to be 0.9 fold in [18], 0.7 fold with gp120 BaL (HIV-1 BaL) and 0.7 fold in [19].

For the substance PGT 128 IgG variant HC G55D (antibody), the Fold change in neutralization (IC50 variant/IC50 WT antibody) in [16] turned out to be 2.3 fold; in test [17], 2 fold. The fold change in gp120 binding (EC50 variant/EC50 WT) in [18] turned out to be 0.7 fold; in the test with gp120 BaL (HIV-1 BaL) it was 2.5 fold; in test [19], 1.4 fold.

Take PGT 128 IgG variant HC H52aA (antibody): the Fold change in neutralization (IC50 variant/IC50 WT antibody) in test [16] was determined as 9.8 fold; in test [20] it was 146 fold; in test [17] it was 2.4 fold. The fold change in gp120 binding (EC50 variant/EC50 WT) came to 64 fold in [18], 2.4 fold with gp120 BaL (HIV-1 BaL) and 2.8 fold in test [19]. The same substance displayed an EC50 (read off the curve) in test [4] of 0.09 µg/mL.

In the case of PGT 128 IgG variant HC H59A (antibody), the Fold change in neutralization (IC50 variant/IC50 WT antibody) was found to be 11.5 fold in [16], 12.4 fold in test [20] and 6.8 fold in [17]. In addition, the fold change in gp120 binding (EC50 variant/EC50 WT) in test [18] turned out to be 1 fold; with gp120 BaL (HIV-1 BaL), 1 fold; in test [19], 0.8 fold.

Turning to “PGT 128 IgG variant HC K100gA (antibody)”, the Fold change in neutralization (IC50 variant/IC50 WT antibody) in test [16] was 1700 fold; in test [20], more than 3000 fold; in test [17], 142 fold. The fold change in gp120 binding (EC50 variant/EC50 WT) with gp120 BaL (HIV-1 BaL) worked out at 28 fold; in test [19] it was 22.3 fold. The same substance gave an EC50 (read off the curve) in [4] of 1 µg/mL.

For PGT 128 IgG variant HC L51A (antibody), the Fold change in neutralization (IC50 variant/IC50 WT antibody) in test [16] and in test [17] was 1.2 fold each time. Moreover, the results for the fold change in gp120 binding (EC50 variant/EC50 WT) (in test [18]; with gp120 BaL (HIV-1 BaL); in test [19]) were 0.7 fold, 1.5 fold and 0.7 fold, respectively.

As to PGT 128 IgG variant HC L100A (antibody), the Fold change in neutralization (IC50 variant/IC50 WT antibody) came out at 2 fold in test [16] and 0.8 fold in [17]. The fold change in gp120 binding (EC50 variant/EC50 WT) in test [18] is 1.7 fold; in the test with gp120 BaL (HIV-1 BaL), 1.3 fold.

For the substance PGT 128 IgG variant HC N33A (antibody), the results for the Fold change in neutralization (IC50 variant/IC50 WT antibody) in test [16] and in test [17] were 0.4 fold and 0.7 fold, respectively. Moreover, the fold change in gp120 binding (EC50 variant/EC50 WT) in [18] amounted to 0.5 fold; with gp120 BaL (HIV-1 BaL) it was 0.8 fold; in [19], 0.6 fold.

Turning to PGT 128 IgG variant HC R54A (antibody), the Fold change in neutralization (IC50 variant/IC50 WT antibody) in test [16] was found to be 2.3 fold; in [17], 0.6 fold. Besides, the fold change in gp120 binding (EC50 variant/EC50 WT) in test [18] was determined as 0.9 fold; in the test with gp120 BaL (HIV-1 BaL), 0.6 fold; in test [19], 0.5 fold.

On to “PGT 128 IgG variant HC R100aA (antibody)”, for which the Fold change in neutralization (IC50 variant/IC50 WT antibody) in [16] was 2.1 fold; in test [17] it was 1.3 fold. Besides, the fold change in gp120 binding (EC50 variant/EC50 WT) was 0.7 fold in test [18], 1.5 fold with gp120 BaL (HIV-1 BaL) and 1 fold in test [19].

In the case of PGT 128 IgG variant HC W52fA (antibody), the Fold change in neutralization (IC50 variant/IC50 WT antibody) in [16] was 29.5 fold; in [20], 34.5 fold; in [17], 3.9 fold. The figures for the fold change in gp120 binding (EC50 variant/EC50 WT) (in [18]; with gp120 BaL (HIV-1 BaL); in test [19]) were 1.5 fold, 1.5 fold and 1 fold, respectively.

In the case of “PGT 128 IgG variant HC W100eA (antibody)”, the Fold change in neutralization (IC50 variant/IC50 WT antibody) was 658 fold in test [16], more than 3000 fold in [20] and 29.7 fold in test [17]. Besides, the results for the fold change in gp120 binding (EC50 variant/EC50 WT) (in [18]; with gp120 BaL (HIV-1 BaL); in test [19]) were 17.4 fold, 15 fold and 9.4 fold, respectively. The substance further came in with an EC50 (read off the curve) in test [4] of 0.5 µg/mL.

For the substance PGT 128 IgG variant HC Y52eA (antibody), the Fold change in neutralization (IC50 variant/IC50 WT antibody) came out at 12.9 fold in test [16], 21.1 fold in [20] and 2.1 fold in test [17]. In addition, the fold change in gp120 binding (EC50 variant/EC50 WT) in test [18] is 1.2 fold; in the test with gp120 BaL (HIV-1 BaL), 0.9 fold; in test [19], 0.7 fold.
